# Patent US11466255B2, “Methods and compositions for converting non-endocrine pancreatic tissue into insulin-producing cells” (UNIVERSITY OF MIAMI, priority 2015, dated 2022)
# Legend:
# [1] = system: hNEPT; test: Immunofluorescence / ImageJ quantification of C-peptide+ cells; assay type: cell-based, human; conditions: 12 fields/sample, n=3; controls 8.15±0.92%, P<0.0001
# Method: Immunofluorescence characterization of the insulin-expressing clusters was conducted. To rule out potential false-positives derived from the presence of residual insulin in the culture medium, we stained for C-peptide, which is present in pro-insulin and therefore indicates de novo synthesis of insulin. […] In order to quantify the number of C-peptide+ cells after BMP-7 treatment ImageJ and the FIJI Analyze particles feature was used. Using this software on an average of 12 fields/sample (n=3), the percentage of C-peptide+cells in hNEPT populations after BMP-7 treatment was determined to be 30.43±4.07% vs. 8.15±0.92% in controls (P<0.0001).
# IF analysis and confocal microscopy: The present study was conducted on human pancreatic samples from cadaveric organ donors. […]
# Imaging analysis: For general quantification purposes (e.g., percentage of C-peptide+ cells) we used ImageJ and the FIJI Analyze particles feature. […] Images were then binarized for quantification. The Watershed function was used on the DAPI channel to separate touching nuclei, which were subsequently counted by the Analyze particle command. Subsequently, we detected nuclei that were overlapping with C-peptide+ areas using the AND operator under the Image calculator feature of FIJI. Finally, we quantified the number of nuclei in the overlap area and calculated the ratio of the overlapping nuclei against the total nuclei.
# [2] = system: stz-treated mice; conditions: systemic BMP-7; cited from earlier work
# [3] = system: hNEPT; test: Glucose-stimulated insulin secretion (GSIS) and perifusion; assay type: cell-based, human; conditions: day 12; 2.5 mM vs 20 mM glucose
# Method: Glucose-stimulated insulin release (GSIR) and total insulin determination: GSIR was performed in six-well plate cultures. BMP-7-treated samples and untreated controls were washed twice with DMEM medium containing 2.5 mM glucose (Low glucose medium or L-medium). Upon addition of 2 ml of the same medium, the cells were cultured for 1 h at 37° C. to bring their insulin secretion to baseline. After 2 more washes, 1 ml of L-medium was added and the cells were returned to the incubator for 1 h. At the end of incubation period, the medium was collected and the cells exposed for 1 h to 1 ml of 20 mM glucose DMEM medium (high glucose medium or H-medium). After the collection of the H-medium supernatant, the cells were washed three times with L-medium and cultured again in low glucose conditions for 1 h. As before, supernatant was collected at the end of the incubation period. The second low glucose incubation is necessary to confirm that the cells are responding to glucose concentration changes in a physiological manner and not dumping insulin. […] The lysates and the supernatants from GSIR test were evaluated with ELISA for C-peptide content (Mercodia, Uppsala, Sweden) following manufacturer's instructions. […]
# Perifusion studies: Perifusion was performed as described58. […] Insulin release was determined with the Human Insulin ELISA Mercodia Kit (Uppsala, Sweden) following the manufacturer's instructions.
# [4] = system: ALK3- fraction of hNEPT; test: BMP-7 response of ALK3- fraction; assay type: cell-based, human; conditions: qRT-PCR
# Method: (§1) Magnetic bead-based methods (Miltenyi) were used for the enrichment of ALK3+ cells from hNEPT. Both enriched and negative fractions are subsequently plated and treated with BMP-7 or left untreated (controls).
# (§2) The identity of sorted cells is confirmed by IF, and aliquots are cultured in adherent conditions. Single sorted pancreatic cells are notoriously difficult to culture in plastic, which is addressed by using a combination of Matrigel®-coated plates and fully defined media [STEMPRO® (Thermofisher Scientific, Grand Island, N.Y.) or Kubota's Medium® (PhoenixSongs Biologicals Branford, Conn.)]^8,29,48,49 Matrigel® is used to grow multipotent pancreatic cells^50,51. Colonies from dissociated ALK3^+ cells sorted from fresh hNEPT are readily grown in these conditions, and resemble those obtained from the MPD without sorting. The typical “ring” morphology described by others^50,51 is observed when plating ALK3^+ cells in 3D conditions or fibroblast feeder cells.
# [5] = system: ALK3+ cells from hNEPT; test: BMP-7 response of ALK3-enriched / ALK3+-sorted fraction; assay type: cell-based, human
# Method: as §1, §2
molecule,measurement,setting,value
"BMP-7: 35 kDa homodimeric protein of the TGF-β superfamily; FDA-approved agent; human mature chain SEQ ID NO:1/2 (protein, listed as Homo sapiens, homodimer; human mature chain of BMP-7 (NCBI Reference Sequence NM_001719.2) comprising peptide from 293-431) IRSTGSKQRSQNRSKTPKNQEALRMANVAENSSSDQRQACKKHELYVSFRDLGWQDWIIAPEGYAAYYCEGECAFPLNSYMNATNHAIVQTLVHFINPETVPKPCCAPTQLNAISVLYFDDSSNVILKKYRNMVVRACGCH",percentage of C-peptide+ cells in hNEPT populations after treatment,[1],30.43±4.07%
same,effect on hyperglycemia of stz-treated mice,[2],corrected the hyperglycemia
same,glucose responsiveness of induced clusters,[3],glucose responsive
same,response to BMP-7,[4],did not show any response
same,increase in insulin expression vs. non-BMP-7 treated controls,"[5]; ALK3+-sorted cells, preliminary qRT-PCR",10^3 fold
same,response in terms of C-peptide production,"[5]; magnetic bead ALK3-enriched fraction, only this fraction responds",BMP-7-responsive
